Biological target: HLA class I-A2 molecule (human) (UniProt P04439)
Assay: T2 binding assay, peptide 50 µg/ml for 24 h, anti-HLA-A2 mAb, flow cytometry; cut off for positivity 100

Substance: PSA [42-51] (from UniProt P07288 66-75) (peptide)
- T2 binding, relative fluorescence (mean intensity): 51.4

From US6946133
